Broadly, the Kd is the free concentration of one partner at which half of the binding sites on the other are occupied at equilibrium, for simple one-to-one binding. A high value points to lower affinity.

The target of this assay is human NRP1 protein (human, UniProt O14786 22-856). Briefly: ELISA. Background: In an ELISA, binding on a coated surface is turned into a signal by an enzyme label.

Substitutions are numbered along the chain they refer to.

B1: 1A03 anti-NRP1 IgG antibody (antibody, V domains shown)
VH: EVQLLESGGGLVQFGGSLRLSQAASGFTFSSYYMSWVRQAFGKGLEWVSAISFGSSNKYYADSVQGRFTISRDNSKNTLYLQMNELRAEDTAVYYCARRKKSFDYWGQGTLVTVSS
VL: QSVLTQFFSASGTPGQRVTISCSGFSSNIGNNDVSWYQQLFGTAPKLLIYSCNNRPSGVPDRFSGSKSGTSASLAISGLRSSDEADYYCGAWVASLSAYVFGGGTKLTVTL
Molecule B1 returned a Kd of 1.11 µM.

B2: IRCR-101 (3H10 converted into IgG format) (antibody, V domains shown)
VH: B1 VH with G15Q, G16Q, G26Q, F53P, Q65K, K101Y, S102M
VL: GSVLTQPPSASGTPGQRVTISCTGESSNIGNNDVYWYQQLPGTAFKLLIYSQSNRPSGMPDRFSGSKSGTSASLAISGLRSEDEADYYCASWDSSLSGYVFGGGTKLTVTL
As for B2, the Kd is 0.426 µM.

For the origin of these results see patent US20200011878A1 (published 2020).
